In FireProtDB (doi:10.1021/bi201411c):

B1: Cyanovirin-N, P81180 (parent)
chain: LGKFSQTCYNSAIQGSVLTSTCERTNGGYNTSSIDLNSVIENVDGSLKWQPSNFIETCRNTQLAGSSELAAECKTRAQQFVSTKINLDDHIANIDGTLKYE

Variants of: B1
Conditions: Nostoc ellipsosporum, pH 6, sodium phosphate 20 mM, transition: 2, reversible: yes(90%), structure 1IIY, whole UniProt chain shown; for denaturant m value / denaturant midpoint (higher = more stable): 25 °C, GdnHCl; for Tm / change of melting temperature, mutant - wild type (higher = more stable): Thermal

Variant | denaturant m value (CD) | denaturant midpoint (higher = more stable) (CD) | Tm (CD) | change of melting temperature, mutant - wild type (higher = more stable) (CD) | denaturant m value (fluorescence) | denaturant midpoint (higher = more stable) (fluorescence)
P51G S11I S20A | 2 kcal/mol/M | 3.1 M |  |  |  | 
P51G S11A S20A | 2.4 kcal/mol/M | 2.5 M | 69.6 °C | 3 °C |  | 
P51G S11V S20A T61V | 1.7 kcal/mol/M | 2.9 M | 74.5 °C | 7.9 °C | 2.1 kcal/mol/M | 3 M
P51G | 2.5 kcal/mol/M | 2.2 M | 64.3 °C | -2.3 °C | 2.6 kcal/mol/M | 2.3 M
P51G S11V S20A | 2.6 kcal/mol/M | 2.8 M | 69.8 °C | 3.2 °C | 2.6 kcal/mol/M | 2.8 M
P51G S11A S20A T61I | 1.7 kcal/mol/M | 3.3 M | 75.8 °C | 9.2 °C | 2.1 kcal/mol/M | 3.5 M
